This note sets out measurements from article PMC4592220, “Geminivirus Activates [sequence] LEAVES 2 to Accelerate Cytoplasmic DCP2-Mediated mRNA Turnover and Weakens RNA Silencing in Arabidopsis” (PLoS Pathogens, 2015).

Sequences and labels used below:
T1: DCP2, recombinant (Arabidopsis thaliana, UniProt Q8GW31 1-373)
T1 construct: mRNA decapping enzyme DCP2, Arabidopsis; full-length cDNA
T1 sequence: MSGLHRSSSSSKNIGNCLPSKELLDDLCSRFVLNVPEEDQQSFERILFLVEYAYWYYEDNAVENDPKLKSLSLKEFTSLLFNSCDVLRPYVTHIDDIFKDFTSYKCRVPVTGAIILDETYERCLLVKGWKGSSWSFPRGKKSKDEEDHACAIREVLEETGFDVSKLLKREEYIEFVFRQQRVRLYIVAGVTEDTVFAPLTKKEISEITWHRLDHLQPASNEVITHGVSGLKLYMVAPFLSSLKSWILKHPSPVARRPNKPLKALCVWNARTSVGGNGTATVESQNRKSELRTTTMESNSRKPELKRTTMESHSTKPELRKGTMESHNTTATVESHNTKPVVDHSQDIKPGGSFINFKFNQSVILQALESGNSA

B1: His-AS2 (… LEAVES 2) (natural protein)
chain: MASSSTNSPCAACKFLRRKCQPECVFAPYFPPDQPQKFANVHKVFGASNVTKLLNELHPSQREDAVNSLAYEADMRLRDPVYGCVGVISLLQHQLRQLQIDLSCAKSELSKYQSLGILAATHQSLGINLLAGAADGTATAVRDHYHHHQFFPREQMFGGLDVPAGNNYDGGILAIGQITQFQQPRAAAGDDGRRTVDPS
notes: full-length cDNA; The methods say the yeast SUMO tag was used to improve AS2 solubility; also called WT AS2
B2: GST-AS2 (… LEAVES 2) (natural protein)
chain: B1 chain
notes: full-length cDNA

The target of the test “GST-AS2 (… LEAVES 2)” is B2. Put plainly: pull-down; 2 ug of GST/MBP/His/His-SUMO fusion proteins; binding buffer 50 mM Tris-HCl pH 7.5, 100 mM NaCl, 0.25% Triton X-100, 35 mM beta-mercaptoethanol, 2 h at 4 C, then glutathione sepharose 4B overnight; 6 washes; Western blot with anti-His, anti-GST or anti-MBP. As to conditions: both partners purified.
The target of a further test is T1, DCP2, recombinant. The description is as above. As to conditions: both partners purified.

As for B1, the binding result with GST-AS2 (… LEAVES 2) is given as “binds”.
On to B2, for which the binding result with DCP2, recombinant was “binds”.
